From US20210284724A1 (I MAB BIOPHARMA US, published 2021)
Positions count from the first letter of the chain named.

Tests used:
[1] = target: T1, human CXCL13 (human, UniProt O43927 23-109); experiment: SPR Biacore T200
T1 construct: also called huCXCL13; rhCXCL13
T1 sequence (looked up): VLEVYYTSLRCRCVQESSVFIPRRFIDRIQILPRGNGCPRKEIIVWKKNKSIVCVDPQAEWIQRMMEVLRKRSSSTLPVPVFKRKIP

[2] = target: T1, human CXCL13; experiment: SPR Biacore T200; remark: listed apart in the source
Description: In the second approach, mutations were carried out by multiple libraries including 4 different sub libraries, such as saturated mutation libraries by CDR walking for CDR L1, CDR L3, CDR H3 or CDR L2, CDR H1, CDR H2 and saturated mutation libraries by three aa mutated continuously for CDR H3 or CDR L3. After finishing construction of phage sub libraries, antigen CXCL13 screening followed. Antibodies of these sequences were generated, and affinity testing was performed by Biacore T200. To further optimize the antibodies, the lead clones were then back mutated to its humanized counterpart one aa by one aa. Sequences were generated and synthesized for antibodies. Affinity was tested by Biacore T200.

[3] = target: T1, human CXCL13; experiment: SPR Biacore T200; remark: listed apart in the source
Description: To further optimization of 71F4-B, each Mutations in 71F4A3 useful for improving binding (Kon) were added into 71F4-B, the sequences were listed in Table 28. Antibodies according to these sequences were generated and affinity testing was performed by Biacore T200.

[4] = target: T1, human CXCL13; experiment: ELISA binding, Fab
[5] = target: T2, human CXCL13 F20A (human, UniProt O43927 23-109); experiment: alanine scan, flow cytometry
T2 construct: mature; 87 residues fits the mature chain
T2 sequence (looked up): T1 sequence (looked up) with F20A
Description: (§1) Cells were transfected with different WT construct or […] mutant construct which each amino acid was mutant to alanine, totally 87 amino acids. Then, binding of the test Fab to each mutant clone in the alanine scanning library was determined, in duplicate, by high-throughput flow cytometry. For each point, background fluorescence was subtracted from the raw data, which were then normalized to Fab reactivity with WT target protein. For each mutant clone, the mean binding value was plotted as a function of expression (represented by control reactivity). To identify preliminary primary critical clones (red circles), a threshold (dashed lines) of >70% WT binding to control Ab and <20% WT binding to test Fab was applied.

[6] = target: T1, human CXCL13; experiment: SPR Biacore, off-rate ranking of Fabs
[7] = target: T1, human CXCL13; experiment: SPR Biacore 8K, Fab over immobilised CXCL13
Method in brief: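 Fabs (0–16 nM series) flowed at 30 μl/min over CXCL13 amine-coupled to CM5 (~30 RU) on Biacore 8K, 600 s dissociation. Running buffer HEPES 10 mM, NaCl 150 mM, EDTA 3 mM, 0.05% Tween-20, pH 7.4; regeneration with 10 mM glycine-HCl pH 2.0.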

[8] = target: T1, human CXCL13; experiment: SPR Biacore 8K, Fab over immobilised CXCL13; remark: listed apart in the source
Method in brief: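 Surface plasmon resonance: CXCL13 amine-coupled to CM5 chip at ~250 RU, humanized Fabs injected at 0–20 nM, 30 μl/min, in HEPES-buffered saline with EDTA and Tween-20, pH 7.4. Dissociation 600 s; regeneration with glycine-HCl pH 2.0.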

[9] = target: T1, human CXCL13; experiment: cell-based blocking assay, CXCL13 to CXCR5 cells
Method in brief: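 The IC50 of the humanized Fabs was taken from a titration series. Each dilution was pre-incubated for 30 min at room temperature with an equal volume of human CXCL13 at 0.3 μg/ml, and 100 μl was then added for 30 min to fixed, blocked CHO-K1 cells expressing CXCR5 (5×10⁴/well). After three PBST washes, bound CXCL13 was captured with 3 μg/ml human anti-CXCL13 antibody, detected with anti-human Fc-HRP and read at 450 nm.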

[10] = target: T2, human CXCL13 F20A; experiment: alanine scan, flow cytometry on transfected cells
Description: as §1
(§2) We draw the crystal structure diagram in the FIG. 8B, and the critical residues for 64C10G1 Fab binding were visualized and shown on this crystal structure.

[11] = target: T3, human CXCL13 P22A (human, UniProt O43927 23-109); experiment: alanine scan, flow cytometry on transfected cells
T3 construct: mature; 87 residues fits the mature chain
T3 sequence (looked up): T1 sequence (looked up) with P22A
Description: as §1, §2

[12] = target: T4, human CXCL13 R24A (human, UniProt O43927 23-109); experiment: alanine scan, flow cytometry on transfected cells
T4 construct: mature; 87 residues fits the mature chain
T4 sequence (looked up): T1 sequence (looked up) with R24A
Description: as §1, §2

[13] = target: T5, human CXCL13 F25A (human, UniProt O43927 23-109); experiment: alanine scan, flow cytometry on transfected cells
T5 construct: mature; 87 residues fits the mature chain
T5 sequence (looked up): T1 sequence (looked up) with F25A
Description: as §1, §2

B1: 71F4-B (antibody, V domains shown)
VH: EVQLVESGGGLVQPGGSLRLSCAASGIDFSRYWMSWVRQAPGKGLEWVAEINPESSTINYAPSLKDRFTISRDNAKNSLYLQMNSLRAEDTAVYYCARQDDYEYYTMDYWGQGTTVTVSS
VL: DIQMTQSPSSLSASVGDRVTITCKVSQDVNTGVAWYQQKPGKAPKLLIYSASYRYTGVPSRFSGSGSGTDFTFTISSLQPEDIATYYCQQYYSTPLTFGGGTKLEIK
notes: also called 71F4A3-B
**Q.** What does the source list for B1?
**A.** Kd [1]: < 1 nM; Kd [2]: 0.195 nM; koff [2]: 3.57e-05 s⁻¹; kon [2]: 183000 M⁻¹ s⁻¹; Kd [3]: 0.36 nM; koff [3]: 6.59e-05 s⁻¹; kon [3]: 183000 M⁻¹ s⁻¹

B2: 64C10G1 chimeric Fab (Fab, V domains shown)
VH: EVQLVESGGGLVKPGGSLKLSCAASGFTFSSYAMSWVRQTPEKRLEWVATISDGGSDAYYPDNVKGRFTISRDNAKNNLYLQMSHLKSEDTAMYYCARDYYGSGYEDSPMDYWGQGTSVTVSS
VL: DIQMTQSPSSLSASLGGKVTITCKASQDINKYIAWYQHKPGKGPRLLIHYTSTLQPGIPSRFSGSGSGRDYSFSISNLEPEDFATYYCLQYDNLYTFGGGTKLEIK
notes: Fab; also called 64C10G1 Fab
**Q.** With B2 as the binder, how does the EC50 [4] read?
**A.** 1.71 nM

**Q.** Does B2 bind [5]?
**A.** no binding (tested: <20% WT binding)

**Q.** And the Kd [6]?
**A.** 0.814 nM

**Q.** And the koff [6]?
**A.** 0.00218 s⁻¹

**Q.** What about the kon [6] of the same binder?
**A.** 2.68e+06 M⁻¹ s⁻¹

**Q.** What about the Kd [7] of the same binder?
**A.** 0.178 nM

**Q.** And the koff [7]?
**A.** 0.0005 s⁻¹

**Q.** What about the kon [7] of the same binder?
**A.** 2.81e+06 M⁻¹ s⁻¹

**Q.** And the Kd [8]?
**A.** 0.814 nM

**Q.** What about the koff [8] of the same binder?
**A.** 0.00218 s⁻¹

**Q.** What about the kon [8] of the same binder?
**A.** 2.68e+06 M⁻¹ s⁻¹

**Q.** And the IC50 [9]?
**A.** 7.22 nM

**Q.** What about the “Binding reactivity (% WT)” value [10] of the same binder?
**A.** 9.4 % WT

**Q.** And the “Binding reactivity (% WT)” value [11]?
**A.** 14.8 % WT

**Q.** What about the “Binding reactivity (% WT)” value [12] of the same binder?
**A.** -3.3 % WT

**Q.** And the “Binding reactivity (% WT)” value [13]?
**A.** -3.2 % WT
